Results on two molecules are retold here after patent US20230204567A1 (Takeda / Millennium, published 2023).

The target in experiment [1] is T1, inactivated DENV1 (West Pacific 74, Microbix) (Dengue virus serotype 1, UniProt P17763 281-775).
T1 construct: also called dengue virus serotype 1
The experiment can be described thus: ELISA, antigen coated at 1 µg/mL, hybridoma supernatant. On the technique in general: ELISA stands for enzyme-linked immunosorbent assay.

Experiment [2] concerns the target T2, inactivated DENV2 (16681; Microbix) (Dengue virus serotype 2, UniProt P29990 281-775).
T2 construct: also called dengue virus serotype 2
The experiment is described as above.

Experiment [3] addresses T3, ZIKV E protein (Native Antigen) (Zika virus).
T3 chain: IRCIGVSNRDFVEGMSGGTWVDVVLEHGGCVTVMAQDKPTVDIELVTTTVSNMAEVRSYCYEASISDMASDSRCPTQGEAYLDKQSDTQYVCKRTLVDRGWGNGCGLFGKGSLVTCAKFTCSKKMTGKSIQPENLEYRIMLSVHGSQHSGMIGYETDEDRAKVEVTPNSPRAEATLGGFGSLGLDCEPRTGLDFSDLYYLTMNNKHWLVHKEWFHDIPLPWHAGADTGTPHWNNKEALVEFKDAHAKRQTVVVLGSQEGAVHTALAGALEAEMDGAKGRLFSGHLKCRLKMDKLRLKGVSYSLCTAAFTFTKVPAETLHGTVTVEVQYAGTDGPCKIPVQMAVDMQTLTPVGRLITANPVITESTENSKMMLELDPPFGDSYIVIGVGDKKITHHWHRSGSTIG
Put plainly: ELISA, antigen coated at 1 µg/mL, hybridoma supernatant, anti-rabbit IgG-HRP.

The target of experiment [4] is T4, inactivated DENV3 (CH53489, Microbix) (Dengue virus serotype 3).
T4 construct: also called dengue virus serotype 3
Described as above.

Experiment [5] addresses T5, inactivated DENV4 (TVP-360, Microbix) (Dengue virus serotype 4).
T5 construct: also called dengue virus serotype 4
The description is as above.

In experiment [6] the target is T1, inactivated DENV1 (West Pacific 74, …). The description is as above.
Experiment [7] addresses T2, inactivated DENV2 (16681; Microbix). The description is as above.

T1 sequence (P17763 281-775 limits assumed): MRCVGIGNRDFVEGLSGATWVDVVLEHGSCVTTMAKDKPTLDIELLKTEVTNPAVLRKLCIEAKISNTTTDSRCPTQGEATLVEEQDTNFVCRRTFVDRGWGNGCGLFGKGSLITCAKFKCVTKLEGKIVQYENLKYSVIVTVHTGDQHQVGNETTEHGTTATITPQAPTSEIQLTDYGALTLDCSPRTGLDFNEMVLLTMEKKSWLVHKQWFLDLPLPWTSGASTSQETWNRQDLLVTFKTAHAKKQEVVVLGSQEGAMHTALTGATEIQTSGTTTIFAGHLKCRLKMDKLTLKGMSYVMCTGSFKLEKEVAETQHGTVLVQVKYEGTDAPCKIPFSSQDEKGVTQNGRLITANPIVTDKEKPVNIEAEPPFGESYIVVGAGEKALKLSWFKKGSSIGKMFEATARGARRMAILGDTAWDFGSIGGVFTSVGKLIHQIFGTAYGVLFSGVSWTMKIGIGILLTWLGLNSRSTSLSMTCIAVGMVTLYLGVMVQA

B1: Anti-ZIKV #1 (IgG, Clone 242-3) (antibody, V domains shown)
VH: QAQLEESGGDLVKPEGSLTLTCTASGFSFTDRHYMCWIRQAPGKGLEWIACVYPGSSGSTYYASWARGRFTISKTSSTTVTLRMTSLTAADTATYFCARSSYPDSSGYSYGMDLWGPGTLVTVSS
VL: DIVMTQTPASVEAAVGGTVTIKCQASQNINSNLAWYQQKPGQRPKFLMYLTSKLASGVPSRFRGSGSGTQFTLTISDLECADAATYYCQTYYDISNYGYAFGGGTEVVVKG
notes: also called antibody 1; donor Ab of mAb pair #1
For the molecule B1, the binding result in experiment [1] and in experiment [2] was “no binding” in each case. Besides, the “optical density (OD)” value was 0.33 OD in experiment [3]; 0.04 OD in experiment [4]; 0.038 OD in experiment [5]; 0.04 OD in experiment [6]; 0.034 OD in experiment [7].

B2: Anti-ZIKV #2 (IgG, Clone 306-2) (antibody, V domains shown)
VH: QSLEESGGDLVKPGASLTLTCTASGFDFSDRYYMCWVRQAPGKGLEWIGCIYVGSGDTYYASWAKGRFTISRTSSTTVTLQMTRLTAADTATYFCARHPGTYFTLWGPGTLVTVSS
VL: DVVMTQTPSSVSAAVGGTVTINCQASQNIVNNLAWYQQRPGQPPKLLIYDTSTLASGVPSRFKGSGSGTEFTLTISDLECADAATYYCQTYYYYNKIINGFGGGTEVVVKG
notes: also called antibody 2; acceptor Ab of mAb pairs #1 to 3
Consider B2, for which the binding result in experiment [1] and in experiment [2] was “no binding” in each case. Further, the “optical density (OD)” value turned out to be 0.61 OD in experiment [3]; 0.034 OD in experiment [4]; 0.048 OD in experiment [5]; 0.037 OD in experiment [6]; 0.034 OD in experiment [7].
